T1: amphyphisin SH3 (AMPH_HUMAN), P49418
T1 chain: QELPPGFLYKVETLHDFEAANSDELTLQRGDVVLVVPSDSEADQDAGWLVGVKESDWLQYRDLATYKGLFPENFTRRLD

The first test has as its target endophilin SH3 (SH3G2_HUMAN), Q99962. Kind of test: SPOT array.
On to DRPIIDRPIRGRGG [Q9Y367 154-167], for which the normalised SPOT signal, Boehringer light units (BLU); mean over the file's lines of this peptide was found to be 192.
The same measure, in the same setting: the value for EADSIPRPYRSQQS [O15015 40-53] was 0; that for EALEIPRPLRALDQ [Q9HCK4 1228-1241] was 0; that for DSPLPRRPAFSGTS [Q9HBB0 94-107] was 971.
Still for that read-out and setting: the value for DSPSFSRPSKYSPG [O14905 71-84] was 57.1; that for DQIPPNKPPWFDQP [O00302 379-393] was 46.9.
The same measure, in the same setting: the value for AEILPRRPPTPEAQ [Q9BTK6 128-142] was 32.7; that for DVTDPKRPLSFGVT [Q9P2C6 232-245] was 37.5; that for DTKALRRPKSAELH [P07949 469-482] was 63.
Take EAQFFLRPLRSYGD [P78357 768-781]: the normalised SPOT signal, Boehringer light units (BLU); mean over the file's lines of this peptide amounted to 104.
Still for that read-out and setting: for AEMTFRRPAQAFPV [P07949 672-685] the value was 116; for EARKPAKPPVSPKP [Q8WXD9 1216-1230], 1650; for EASGPERPPALLQE [Q03431 573-587], 62.6.
For DVIIPAKPPVSFFS [Q96K45 88-102], the normalised SPOT signal, Boehringer light units (BLU); mean over the file's lines of this peptide worked out at 53.1.
On the same count and under the same terms, for DVLSPLRPSRRHFP [Q12756 1091-1104] the value was 2630; for DVPAFVRPARVEPT [Q9C0A3 802-815], 72.7; for EALKLRRPPDASGA [P24530 73-86], 42.8.
Same read-out and setting: the value for DVVPPIKPPKEIED [O14967 255-269] was 54.5; that for DSGQPRRPGQSPLS [O75111 1249-1262] was 80.5; that for DTYRPKRPTTLNLF [Q9UQF2 154-167] was 1540.
The same measure, in the same setting: for DTPPPSRPEKKKAD [P12111 1626-1639] the value was 101; for DTLNIRRPLVKMVY [Q9P0U0 373-386], 60.9.
As for DRFPLKRPRYEDSD [O94913 808-821], the normalised SPOT signal, Boehringer light units (BLU); mean over the file's lines of this peptide amounted to 144.
Still for that read-out and setting: the value for DRWDPTRPPRATDT [O95180 738-751] was 62.2; that for DTTSPSRPPGGPII [Q9Y2E5 978-992] was 72.7; that for DTALLPRPERRSSL [Q9Y2E3 518-531] was 65.4.
DRPKPPRPPTGRPS [P51512 320-334] registered a normalised SPOT signal, Boehringer light units (BLU); mean over the file's lines of this peptide of 7650.
Still for that read-out and setting: the value for EAGSPRRPRRQRSD [Q15015 1069-1082] was 377.

The next test addresses T1, amphyphisin SH3 (AMPH_HUMAN), P49418. The test is described as follows: SPOT array.
For DRPIIDRPIRGRGG [Q9Y367 154-167], the normalised SPOT signal, Boehringer light units (BLU); mean over the file's lines of this peptide amounted to 325.
Take EADSIPRPYRSQQS [O15015 40-53]: the normalised SPOT signal, Boehringer light units (BLU); mean over the file's lines of this peptide is 10.4.
On the same count and under the same terms, for EALEIPRPLRALDQ [Q9HCK4 1228-1241] the value was 0.
In the case of DSPLPRRPAFSGTS [Q9HBB0 94-107], the normalised SPOT signal, Boehringer light units (BLU); mean over the file's lines of this peptide amounted to 11.5.
Consider DSPSFSRPSKYSPG [O14905 71-84], for which the normalised SPOT signal, Boehringer light units (BLU); mean over the file's lines of this peptide turned out to be 30.7.
Still for that read-out and setting: for DQIPPNKPPWFDQP [O00302 379-393] the value was 43.4; for AEILPRRPPTPEAQ [Q9BTK6 128-142], 57.4.
On the same count and under the same terms, for DVTDPKRPLSFGVT [Q9P2C6 232-245] the value was 1.7; for DTKALRRPKSAELH [P07949 469-482], 25.9; for EAQFFLRPLRSYGD [P78357 768-781], 3170.
On the same count and under the same terms, for AEMTFRRPAQAFPV [P07949 672-685] the value was 26.9; for EARKPAKPPVSPKP [Q8WXD9 1216-1230], 53.6; for EASGPERPPALLQE [Q03431 573-587], 52.1.
With DVIIPAKPPVSFFS [Q96K45 88-102], the normalised SPOT signal, Boehringer light units (BLU); mean over the file's lines of this peptide stood at 15.7.
DVLSPLRPSRRHFP [Q12756 1091-1104] yielded a normalised SPOT signal, Boehringer light units (BLU); mean over the file's lines of this peptide of 9010.
On the same count and under the same terms, for DVPAFVRPARVEPT [Q9C0A3 802-815] the value was 4540; for EALKLRRPPDASGA [P24530 73-86], 35.9.
DVVPPIKPPKEIED [O14967 255-269] gave a normalised SPOT signal, Boehringer light units (BLU); mean over the file's lines of this peptide of 43.9.
Same read-out and setting: the value for DSGQPRRPGQSPLS [O75111 1249-1262] was 20.2; that for DTYRPKRPTTLNLF [Q9UQF2 154-167] was 75.1.
The molecule DTPPPSRPEKKKAD [P12111 1626-1639] displayed a normalised SPOT signal, Boehringer light units (BLU); mean over the file's lines of this peptide of 78.7.
Same read-out and setting: for DTLNIRRPLVKMVY [Q9P0U0 373-386] the value was 24.3; for DRFPLKRPRYEDSD [O94913 808-821], 129; for DRWDPTRPPRATDT [O95180 738-751], 360.
Same read-out and setting: the value for DTTSPSRPPGGPII [Q9Y2E5 978-992] was 36.5.
On the same count and under the same terms, for DTALLPRPERRSSL [Q9Y2E3 518-531] the value was 112; for DRPKPPRPPTGRPS [P51512 320-334], 574; for EAGSPRRPRRQRSD [Q15015 1069-1082], 8310.
